# Reference: patent publication US20240108707A1, “CHAGAS DISEASE VACCINE ANTIGENS WITH IMPROVED STABILITY AND DECREASED AGGREGATION” (Baylor College of Medicine, priority 2019, published 2024)
# Read-outs that look alike come from different tables or passages of the source.
# B1: TSA-1-C4: Recombinant T. cruzi TSA-1 fragment, four cysteines mutated to serine (C248S, C267S, C360S, C447S), plus 43 C-terminal amino acids (protein)
# chain: MERNSGDLQLPQEIAMLVPNKTQVVPKSGGEGKVKDIFASPALVRAGGVMIAFVEGRTKNKLFPEVIDLSSSDIVAGYIKAPETWQSLVAEVTKEYWQAHTVLESANNSNHRVGVARLPTGITRGNKVFLLVGSYEERREIDDYIWKAEAWNIKVIEGEATQSTEVQPTQPINWSEPKPLFQTDSPNNKGDLKEFLGGGGSGIVMGNGTLVFPLTAKDESNKVFSLITYSTDDGQKWEIPGGVSSVASRSPRVTEWEEGTLLMVTYSEDGRKVFESRDMGKTWTEAFGTLPGVWLKSGPELPEVSLRVDALITATIEGRKVMLYTQKVRHFLEVDEPNALHLWVTDNNRTFHLGPFSVDSAENKTFANTLLYSDDALHLLQAKGDHESTAVSLARLTEELNTINSVLSTWVQLDASFSESSIPTAGLVGFLSNTTSSGDTWIDGYRSMNATVTKAAKVENGFKFTGPGSRATWPVNSRWDIKQYGFVDYNFTIVAMATIHQVPSESTPLLGASLRGNKRTKLIGLSYGAGGKWETVYDGTKTVQGGTWEPGREYQVALMLQDGNKGFVYVDGVLVGNPAMLPTPEERWTEFSHFYFGGDEGDSGSDATLTDVFLYNRPLSVGELKMIKEVED
# modifications: synthetic recombinant protein based on TSA1 from T. cruzi
# notes: Recombinant T. cruzi TSA-1 fragment, four cysteines mutated to serine (C248S, C267S, C360S, C447S), plus 43 C-terminal amino acids
# B2: Tc24-C4: Recombinant T. cruzi Tc24 with 4 cysteine residues mutated to serine residues (protein)
# chain: MGASGSKGSTSDKGLASDKDGKNAKDRKEAWERIRQAIPREKTAEAKQRRIELFKKFDKNETGKLSYDEVHSGSLEVLKLDEFTPRVRDITKRAFDKARALGSKLENKGSEDFVEFLEFRLMLSYIYDFFELTVMFDEIDASGNMLVDEEELKRAVPKLEAWGAKVEDPAALFKELDKNGTGSVTFDEFAAWASAVKLDADGDPDNVPESA
# modifications: synthetic recombinant protein based on TSA1 from T. cruzi
# notes: Recombinant T. cruzi Tc24 with 4 cysteine residues mutated to serine residues
# Assays:
# [1] = Solubility of recombinant protein expressed in E. coli BL21(DE3) (SDS-PAGE of soluble fraction and inclusion bodies; 8M urea); format: physicochemical; settings: for solubility of protein as expressed in E. coli: E. coli BL21(DE3), induced with 0.5 mM IPTG
# Protocol: FIGS. 3A and B. SDS-PAGE of expressed wild-type TSA-1-NT in E. coli BL21(DE3) induced with 0.5 mM IPTG from 0-16 hours.
# FIGS. 6A and B. SDS-PAGE of expressed TSA-1-C4 in E. coli BL21(DE3) induced with 0.5 mM IPTG over 16 hours.
# (§1) In order to develop as a recombinant protein vaccine that can be used in humans in endemic areas, the coding DNA for TSA-1-NT was identified and codon optimized for expression in E. coli. The synthesized DNA was cloned into pET41a, a bacterial expression vector with an IPTG inducible T7 promoter. The recombinant TSA-1-NT/pET41a plasmid DNA was transformed into E. coli BL21(DE3). […] The on-column refolded TSA-1-NT was soluble but aggregated when stored at 4° C. one month (FIG. 4C). Aggregation causes problems with reproducibility and consistency, and would prevent the protein from being developed into a vaccine formulation. We hypothesized that the reason for the aggregation was the interaction of four cysteine residues in the sequence of the molecule (C248, C267, C360, C447) that could lead to intermolecular disulfide bridges.
# The coding DNA for TSA-1-C4 (SEQ ID NO: 5) was codon optimized for expression in E. coli, synthesized by GenScript, and cloned into pET41a with an octahistidine-tag (SEQ ID NO: 11, HHHHHHHH, shaded in FIG. 5A) or without an octahistidine-tag (SEQ ID NO: 3, FIG. 2 and FIG. 5B) expressed at its C-terminus. The recombinant plasmid DNAs were transformed into E. coli BL21(DE3) and selected on LB agar plates containing 30 μg/mL of kanamycin. The correct sequences and reading frames were confirmed by double-strand DNA sequencing with vector flanking primers.
# [2] = Aggregation / stability of on-column refolded protein on storage, stirring and freeze-thaw (visual analysis, SDS-PAGE, Western blot); format: physicochemical; settings: for aggregation of on-column refolded protein on storage: stored at 4° C. one month, SDS-PAGE (TSA-1-C4: in PBS, also visual analysis, Western blot)
# Protocol: FIG. 4A-C. On-column refolding of TSA-1-NT. A, chromatographic profile of TSA-1-NT refolded by Size Exclusion Chromatography; B, samples were collected and analyzed by SDS-PAGE under non-reducing condition aggregates (a), and refolded protein (b and c); C, refolded TSA1-NT (b) after one month at 4° C. under reducing (lanes 1,3) and non-reducing conditions (lane 2).
# FIGS. 10A, B and C. SDS-PAGE analysis of refolded TSA-1 C4 by Size-Exclusion Chromatography. A, the collected fractions of the main peak of seven consecutive refolding batches of denatured TSA-1 C4 (in 1.6×100 XK column packed with 185 ml of Sepharose 6FF) were analyzed by 10% SDS-PAGE under non-reducing conditions; batch1 (Lanes 2 and 3), batch 2 (Lanes 4 and 5), batch 3 (Lanes 6 and 7), batch 4 (Lanes 8 and 9), batch 5 (Lanes 10 and 11), batch 6 (Lanes 12 and 13), batch 7 (Lanes 14 and 15). B, Refolded TSA-1-C4 was stored at 4° C. in refolding buffer (lanes 1,4), Tris-HCl (lanes 2 and 5) and PBS (lanes 3 and 6) buffers. Samples were analyzed by SDS-PAGE under non-reduced conditions before (lanes 1, 2 and 3) and after one month (lanes 4, 5 and 6) of storage at 4° C. C, the stability of refolded TSA-1-C4 was tested by orbital stirring at 25 rpm and 20° C. for 24 (lane 2), 48 (lane 3) and 120 h (lane 4), and by cycles of freezing (−80° C.)-thawing at 24 h (lane 5), 48 (lane6) and (lane 7). Molecular Weight marker (lane 1).
# as §1
# However, and more importantly, and unlike TSA-1 NT, after purification on a nickel column or ion-exchange chromatography (FIGS. 8A and B) and refolding on a size-exclusion column (FIGS. 9A and B). The refolded TSA-1-C4 was concentrated by ultrafiltration, analyzed by SDS-PAGE (FIG. 10A) and it was stable.
# T. cruzi [3] = settings: mice; cited from earlier work
# H1 Trypanosoma cruzi = assay: Therapeutic vaccine efficacy: parasitemia in H1 Trypanosoma cruzi-infected mice; format: in vivo; settings: 20 μg antigen IM, acute infection, compared to untreated controls
# Protocol: FIGS. 11A and B. Therapeutic effect of TSA-1-C4 alone or with Tc24-C4 and in a combination with or without benznidazole (BZN) treatment. H1 Trypanosoma cruzi-infected mice were treated with Tc24-C4 and TSA-1-C4, […] and given orally 25 mg/kg BZN per day for 20 days. A, Kinetic parasitemia was recorded each 3 days during the acute infection. Standard bars represent the error of the mean. B, Area under the curve (AUC) was graphed using the simple method of Gagnon. Histograms represent the mean and standard bars the error of the mean.
# Briefly, H1 Trypanosoma cruzi-infected mice were treated with Tc24-C4 and TSA-1-C4, 20 μg each and given orally 25 mg/kg BZN per day for 20 days. Kinetic parasitemia was recorded each 3 days during the acute infection (FIG. 11A), and the area under the curve (AUC) was graphed (FIG. 11B).
# [4] = cited from earlier work
# T. cruzi [5] = settings: formulated with E6020-SE; versus Tc24+E6020-SE; cited from earlier work
Molecule,solubility in 8M urea [1],solubility of protein as expressed in E. coli [1],aggregation of on-column refolded protein on storage [2],aggregation when compounded into vaccine compositions ([2]; vaccine compositions),protective immunity (T. cruzi [3]),"aggregation under stirring ([2]; after 120 h under orbital stirring, 25 rpm, 20° C.)","aggregation after cycles of freezing-thawing ([2]; freezing (−80° C.)-thawing at 24, 48 and 120 h)","levels of parasites in the blood (parasitemia, AUC) (H1 Trypanosoma cruzi)",solubility of protein as expressed in E. coli ([4]; E. coli (BL21)),"aggregation on storage ([4]; purified protein stored at 4° C. for 9 days, Western blot, light-scattering, HPLC-RP)",protection (mouse survival rate and parasitemia levels in blood) (T. cruzi [5])
"TSA-1-NT: N-terminal fragment of TSA-1 (aa 30-617), wild-type cysteines [reference compound]",soluble in 8M urea,expressed as insoluble protein in inclusion body,aggregated,aggregates,induces protective immunity,,,,,,
B1,soluble in 8M urea,expressed as insoluble protein in inclusion bodies,No aggregation observed,,,No aggregation observed,No aggregation observed,significantly lower levels of parasites in the blood,,,
B2,,,,,,,,,soluble protein,did not form any aggregation,similarly protected
